This note sets out measurements from paper PMC10760096.

The experiment addresses CH848-d949 DE3 design SOSIP Env (HIV-1). The experiment can be described thus: SPR.

B1: DH270 lineage intermediate I5.6 Fab (Fab, V domains shown)
VH: QVQLVQSGAEVKKPGASVKVSCKASGYTFTDYYIHWVRQAPGQGLEWMGWINPNTGRTNSAQKFQGRVTMTRDTSISTAYMELSRLRSDDTAVYYCARGGWIGLYYDSSGYPNFDYWGQGTLVTVSS
VL: QSALTQPASVSGSPGQSITISCTGTSYDVGSYNLVSWYQQHPGKAPKLMIYEVSKRPSGVSNRFSGSKSGNTASLTISGLQAEDEADYYCCSYAGSSTVVFGGGTKLTVL
Molecule B1 gave a fold change in association rate (ka) against unmutated CH848-d949 of 45 fold.
